Experimental data: the nanobody polyreactivity screen of Harvey et al. (2022)

test: yeast display, Sf9 membrane polyspecificity reagent, FACS + sequencing; frameworks hold sequencing errors
In short: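 Genes from sorted yeast were amplified by colony PCR, read by MiSeq 2 × 250 sequencing and filtered on CDR length. These cells carried a synthetic nanobody library in Saccharomyces cerevisiae BJ5465 and were sorted by FACS into low and high (top ~1%) gates on anti-HA and streptavidin fluorescence. Polyreactivity is labelled according to the gate of origin.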

Sequence	polyreactivity (PSR sort gate)
QVQLVESGGGLVQAGGSLRLSSAASGRTFHSYARGWYRQSPGKERELVAGMSWGGTRTTYADSVKGRFTLSRDNAKNTVYLQMNSLKPEDTADYYCNAVYYALGRSPPDYGYWGQGTQVTVSS	low polyreactivity
QVQLVESGGGLVQAGGSLRLSSAASGRTFNVNAMGLYRQAPGKERELVAAIDFSDGRTYYADSVKGRFTISRDNAKNTVYLQMNSLKPADTAVYYCARSFRVGKTWYDYWGQGTQVTVSS	high polyreactivity
QVQLVESGGGLVQAGGSLRLSSAASGRTFQTNAMGWYRQAPGKERELVAAISSTGGSTYYADSVKGRFTISRDNAKNTVYLQMNSLKPEDTAVYYCNAGRTYRYDFWGQGTQVTVSS	high polyreactivity
QVQLVESGGGLVQAGGSLRLSSAASGRTFSYNTMGWYSQAPGQERELVARITWGGGSTNYAVSVKGRFTISRDNAKNTVYLQMNSLKPEDTAVYYCAAGPSVPYGPQKVDYWGQGTLVTVSS	low polyreactivity
QVQLVESGGGLVQAGGSLRLSSAASGRTFVNYTMGWYRQAPGIERELVAAITSSGGSTYYADSVKGRFTISRDNAKNTVYLQMNSLKPEDTAVYYCAAAKFDLSFWLYYWGQGTQVTVSS	low polyreactivity
QVQLVESGGGLVQAGGSLRLSSAASGRTFYLNAMGWYRQAPGKERELVAAIRISGGSTYYADSVKGRFTISRDNAKNTVYLQMKSLKPEDTAVYYCIAGPYHALSPTVSEYGYWGQGSQVTVSS	low polyreactivity
QVQLVESGGGLVQAGGSLRLSSAASGRTSYVYAMGWYRQEPGKERELVAVITRRGGSTYYADSVKGRFTISRDNAKNTVYLQMNSLKPEDTAVYYCNAAYTTWRRGPMNYWGQGTQVTVSS	high polyreactivity
QVQLVESGGGLVQAGGSLRLSSAASGSIFAYNDMGWYRQAPGKERELVAAITWSGDSTYYADSVKGRFTISRDNAKNTVYLQMNSLKPEDTAVYYCATDPLFKTSTRWKYDYWGQGTQVTVSS	low polyreactivity
QVQLVESGGGLVQAGGSLRLSSAASGSIFKYNAMGWYRQAPGEERELVAAIRWSGGSTYYADSVKGRFTISRDNAKNTVYLQMNSLKPEDTAVYYCAAEYFNQNTRQGYDYWGQGSQVTVSS	low polyreactivity
QVQLVESGGGLVQAGGSLRLSSAASGSIFKYYAMGWYRQAPGKERELVATISSVGSTNYADSVKGRFTISRDNAKNTVYLKMNSLKPEATAVYYCNARIGSRSYAWISTRYDYWGQGTQVTVSS	high polyreactivity
QVQLVESGGGLVQAGGSLRLSSAASGSIFLYNAMGWYRQAPGKERELVAAISGSGGRTNYADSVKGRFTISRDHAKNTVYLQMNSLKPEVTAVYYCAAGYHVFRLGYARIPLYDYWGQGTQVTVSS	low polyreactivity
QVQLVESGGGLVQAGGSLRLSSAASGSIFWHYAMGRYRQAHGKERQLVAGISTRGGITYFADSVKGRFTISRDNAKNTVYLQMNSLKPEDTAVYYCNGVLFFQWFWTYDDYWGQGTQVTVSS	low polyreactivity
QVQLVESGGGLVQAGGSLRLSSAASGSIIKYYAMGWYRQAPGKERELVAAINKSGGTTYYADSVKGRFTISRDNAQNPVYLQMNSLKPEDTAVYYCATDNTVVYQPGNMDFWGQGTQVTVSS	low polyreactivity
QVQLVESGGGLVQAGGSLRLSSAASGSILPLYAMGWYRQAPGKERELVADISWSGGDTYYADSVKGRFTISRDKAKNTVYLQMNSLKPEDTAVYYCNSRLDYSTYESSPVTRKRVYWGQGTQVTVSS	low polyreactivity
QVQLVESGGGLVQAGGSLRLSSAASGSILWQYAMGWYRQAPGTERELVAAMTYSGGSTHYADSVKGRFTISRDNAKNTVYLQMNSLKPEDTAVYYCAAGYWYRYAALRYDHWGQGTQVTVSS	low polyreactivity
QVQLVESGGGLVQAGGSLRLSSAASGSTFGYYAMGWYRQAPGKERELVAVIRSRTGDTNYADSVKGRFTISRDNAKNTVYLQMNSQKPEDTAVYYCNAALWYGSTIYSYRYGYWGHGTQVTVSS	high polyreactivity
QVQLVESGGGLVQAGGSLRLSSAASGSTFRYNALGWYRQAPGKERELVAAISSSGGSTRYADSVKGRFTISRDNEKYTDYLQMNSLKPEDTAVYYCDVRFYDWRYYYWGQGTQVTVSS	high polyreactivity
QVQLVESGGGLVQAGGSLRLSSAASGSTFVWYAMGWYRQAPGKERELVASISGSGGRTYYADSVKGRFTISRDNAKNTVYLQMNSLKPEDTAVYYCAAYYRKTGYDYWGQGTQVTVSS	high polyreactivity
QVQLVESGGGLVQAGGSLRLSSAASGSTFYWYTMGWYRQAPGKERELVARISKRGGSTYYADSVKGRFTISRDNAKNTVYLQMNSLKPEDTAVYYCNATSRTVGFGYWGQGTQVTVSS	high polyreactivity
QVQLVESGGGLVQAGGSLRLSSAASGSTFYYYAMGWYRQAPGKERELVATISRSTARTFYADSVKGRFTISRDNEKNTVYLQMNSLKPEDTAVYYCAATSYVSVYPSYYRFGTYGYWGQGTQVTVSS	high polyreactivity
QVQLVESGGGLVQAGGSLRLSSAASGSTSRYYDMGWYRQSPGKVRELVAAITWSGGTTYYADSVKGRFTISRDNAKNTVYLQMNSLKPDDPAVYYCAADASYTYYEFVYWGQGTQVTVSS	low polyreactivity
QVQLVESGGGLVQAGGSLRLSSAASGYIFTPYAMGWYRQAPGKERELVAAISSSTVRTFYADSVKGRFTISRDNAKNTVYLQMNSLKPEDTAVYYCAARGYWGQGTQVTVSS	high polyreactivity

Sequence	polyreactivity (PSR sort gate)
QVQLVESGGGLVQAGGSLRLSSAATGSIFRGNAIGWYRQAPWKELELVASISYSRGSTYYADSVKGRFTISRDNEKNTVYLQMNSVKPEETAVYYCARDYDAAYYLSEYIRSVEFDYWGQGTQVTVSS	low polyreactivity
QVQLVESGGGLVQAGGSLRLSSADSGRTFWDNTMGWYRQAPGKERELVAAISGGDSTYYADSVKGRFTISRDNAKNTVYLQMNSLKPEDTAVYYCAAAYATPTLYYYWGQGTQVTVSS	low polyreactivity
QVQLVESGGGLVQAGGSLRLSSADSGRTFYGNAMGWYRQSPGKERELVAAISKRGGNTYYADSVKWRFTISRDNAKNTVYLQMNSLKPEDTAVYYCARQARTPSSWYIYDSWGQGTQVTVSS	high polyreactivity
QVQLVESGGGLVQAGGSLRLSSADSGSIFVYNDMGWYRQAPGKERELVARIDWSGDRTYADSVKGRFTISRDNAKNTVYLQMNSLKPEDTAVYYCNADEWRWDEIIPYAVDYCGQGTQVTVSS	low polyreactivity
QVQLVESGGGLVQAGGSLRLSSAGSGSTLGFNAMGWYRQAPGKEREFVAGNSASGSSTYFADSVKGRFTISRDNAKNTVYLHINSLKTEDSAVYYFYARVRVRLGRNWSTYYYWGQGTEVTVSS	high polyreactivity
QVQLVESGGGLVQAGGSLRLSSASSGNILQGNAMGSYRQAPGKEMELVAAITSDGSTYADSVKGRFTISRDNAQNTVYLQMNSLKPEDTAVFYCNADGITSLPVTALDYWGQGTQVTVSS	low polyreactivity
QVQLVESGGGLVQAGGSLRLSSSASGSIFASNAMGWYRQEPGKERELVAAINSGDSTNYADSVKGRFTISRDNAKNTVYLQMNSLKPEDTAVYYCNAEYRYYQKTPVLYTNVEYDYWGQGTQVTVSS	low polyreactivity
QVQLVESGGGLVQAGGSLRLSWAASGFTFPAYPMGWYRQAPGKERELVASISSSGRTNYADSEKGRFTISRDNAKNTVYLEMYSLKPEDTAVYYCAALLKQRSTSYGYWGQGSQVTVSS	high polyreactivity
QVQLVESGGGLVQAGGSLRLSWAASGGTFYFNAMGWYLQAAGKEWELVATIRYSGGSTYYADSVKGRFTISRDNAKNTAYLQMNSLKPADTAVYYCNARPRYLSPYRPFKYNYWGQGTQVTVSS	high polyreactivity
QVQLVESGGGLVQAGGSLRLSWAASGITFYVYAMGWYRQAPGKERELVAAISRRGGSTSYADSVKGRFTISRDNAKNTVYLQMNSLKPEDTAVYYGAAGPFYGGIVRRYDYWGQGTQVTVSS	low polyreactivity
QVQLVESGGGLVQAGGSLRLSWAASGLTFETYVMGWYRQAPGKERELVAAISSSGRTYYADSVKGRFTISRDNAKNTVYLQMNSLKPEDTAVYYCAARGREFGYWGQGTQVTVSS	high polyreactivity
QVQLVESGGGLVQAGGSLRLSWAASGRIFYGYTMGWYRQAPGKERELVASITIRGSRTYYADSVKGRCTISRDNAKNTVYLQINSLKPEDTAVYYCAADFVPARTVHRYDYWGQGTQVTVSS	low polyreactivity
QVQLVESGGGLVQAGGSLRLSWAASGRIPYNAMGWYRQAPGKERELVAAISRSGTRTYYADSVKGRFTISRDNAKNTVFFQMNSLKPEDTAVYYCAAEYTRSFYIYYRFGYWVQGTQVTVSS	high polyreactivity
QVQLVESGGGLVQAGGSLRLSWAASGRLFDGYAMGWYRQAPGTERELVATISSSGGATYYADSVKGRFTISRDNAKNTVYLQMNSLKPEDTAVYYCATAGSVSHWYSYFAFWERDYWGQGTQVTVSS	low polyreactivity
QVQLVESGGGLVQAGGSLRLSWAASGRTFGVYAMGWYRQAPGTERELVATITRSGGRTYYADSVKGRFTLSRDTAKNTVYLQMNSLKPEATAVYYCNAGHGSLRYNYWGQGTQVTVSS	high polyreactivity
QVQLVESGGGLVQAGGSLRLSWAASGRTFKSNAMGWYRPAPGKERELVAAISWGGGSTYYADSVKGRFTISRDNAKNTVYLQMNSLKPEDTAVYYCARRDIYGSYGFYTGGVDYWGQGTQVTVSS	low polyreactivity
QVQLVESGGGLVQAGGSLRLSWAASGRTFNRYVMGWYRQAPGKERELVAAISRSGTSTYYADSVKGRFTISRDNAKNTVYLQMNSLKPEDTAVYYCAREYQTVSFKNYYWGQGTQVTVSS	high polyreactivity
QVQLVESGGGLVQAGGSLRLSWAASGRTLKYNAMGWYRQAHGKERELVSAISYSGSSTYYADSVKGRFTISRDNAKNTVYLQMNSLKPEDTAVYYCNTARPTAAYDYWGQGTQVTVSS	low polyreactivity
QVQLVESGGGLVQAGGSLRLSWAASGSIFDENAMGLSRQAPGKERELVAAISRSTGSTYYADSVKGRFTISRDKAKNTVYVQMNSLKPEDTAVYYCNALTYLRGPPWYTLDYWGQGTQVTVSS	low polyreactivity
QVQLVESGGGLVQAGGSLRLSWAASGSIITSNGMGWYRQAPGKERELVAAITSGTSTYYADSVKGRFTISRDNAKNTVYLQMNSLKPEDTAVYYCAAGRWWVYRYARYYYWGQGTQVTVSS	high polyreactivity
QVQLVESGGGLVQAGGSLRLTCAASASNFVSYPMGWYRPAHGKERELVAAITSAGTTYYAYSVKGRFTISRDNAKNTVYLQMNTLKPEDTAVYYCNTDASFKRTRVSPETEYGYWGQGTQVTVSS	low polyreactivity
